Experimental findings from the DeepSol protein solubility set are described below.

This data set is described as follows: soluble on expression in E. coli; label from the status in PepcDB or PDB records.
In the case of “MTKPAKIGVLLANLGTPDSPTPKSISRYLWQFLTDPRVVDLPRCKWYPLLKAIILPLRSKRIAKNYQAIWTEQGSPLLAISRQQKDALQAYLDNQNIDTQVEIAMTYGNPSMQSAVKNLLKNQVERIIVLPLYPQYSSSTTGAVFDAFANALKEERGLLPFDFIHSYHIDENYINALADSIKVRLKSDEFLLFSYHGIPLRYEKMGDYYREHCKQTTIAVVNKLGLTENQWRMTFQSRFGREEWLQPYTDKFLESAAAQNIQKIAVICPGFSVDCLETIEEIDEENRENFLNNGGQSYQYIPALNVEHAHIEMMGKLILEKLT”, the “soluble on expression in E. coli” value was “not soluble”.

Consider “MTKPFAPASARNRDPILSVLQRYFADRQHVLEIGAGTGQHAVHFAAAMPWLRWQASDHPDHLPGMRQWLDEAALPNTPPPVALQAVLTPAPGLAPAPPLPPVQAGTPAGYDAIYSANTLHIMGWPQVQALFAGLPAVMAPQAVLVIYGPFNRDGEFTSDSNRDFDAMLRARDAASGIRDAAEVDALAAQVGLQLVDDVDMPANNRCRVWQRALEHHHHHH”, for which the “soluble on expression in E. coli” value is “soluble”.

Regarding “MTKPLNTTQAVIEWVNNTRRYATRLDDEADALLAQLTLAAADESALNAACASHGCVGLYGYAQSAKAHLLTTLCGNENGKLEIITPDRDYDYFSHINPGHAPANMAIRFTRDIFSNESGWPLRLRLISEAELVQIFIAWTSSSPVCRQVEKSIITSRLEKWQSLRQPQPVPGVTAEEVATIASFWRSCLPSARQHIDDATWQHFASLLPALDLTTRAHAWALLWGEQPEITQQWLALAHMLQQTGHAGELAAPLSLLVDHFGLPAENFLTQMALTANDTQSDVVVHPVKEGRLLNAVSLSLDSLALLTRELVLSVENNVLDNVDLLDIPVAPDSHPHPLWRAKLGWMLAHYRQQVQPDVLVICNALASRSQTSTAAHHLLEWVNATQPQHESALPGVVWAITPQDARFATQQNLDEAVQQLMGKPGVHWGTLQALDKHSMQRLVEWLSQATSAPQRQARLQALREQLRGRVRDLLPMFDDARLPVETVIRRLQAQAARHGDLLAGLLPPVQNFEALLSTRQSREEQVCGLFNDAIDLFADEPTRASASEGHETGYQAHKMWINHLRQWAHCRDNAQRLGLEPQMLNAVAEILITASYRLGLPQQLQKTMQREEVSGAQLHAIIGNFIAWLGYANIEEAQRPASRVQKGAAIFAATPRSTMLRLTKLDEQPVHAASRYVYDWLVALYTLANENAGYRHPQDVTDVDRAQLIALIA”, the “soluble on expression in E. coli” value is given as “soluble”.

With “MTKPSVGINGFGRIGRLVLRAAVEKDSVNVVAVNDPFISIDYMVYLFQYDSTHGRFKGTVAHEGDYLLVAKEGKSQHKIKVYNSRDPAEIQWGASGADYVVESTGVFTTIEKANAHLKGGAKKVIISAPSADAPMFVVGVNHEKYDHANDHIISNASCTTNCLAPLAKVINDNFGIIEGLMTTVHAVTATQKTVDGPSGKLWRDGRGAGQNIIPASTGAAKAVGKVIPELNGKLTGMAFRVPTPDVSVVDLTARLEKPASLDDIKKVIKAAADGPMKGILAYTEDQVVSTDFVSDTNSSIFDAGASISLNPHFVKLVSWYDNEFGYSNRVVDLISYIATKA”, the “soluble on expression in E. coli” value is “soluble”.

“MTKQQKGFVTGQPTGALNLSDILDSEELGEYHLMSAAIITGNTVDFSGLGAGPDDPFEIASITKIFTGELLRLQIERGEITESTAVGDVLGERVADSLIRDITVEELANHTSGLPRLGNVGLRPFMATFFDKNPYKDLSADRVISISTTSKLNSRGEFHYSNLGFALLGQVLARNAGLTFDQLLDRDLLAPLNLNNTKLMTPESLAQDAPQGFSTPGKQVEAWEMDGFLPAAGLRSTARDMAVFCQYLFTKGPAPFTWQSLESAPEIVWHNGESFGYSSVLFFNTATTTAIFVAADVATSVFPIGHELLMANSTRQESKLEHHHHHH”: the “soluble on expression in E. coli” value is given as “not soluble”.

For the sequence “MTKSVDTLLIPGPIILSGAVQKALDVPSLGHTSPEFVSIFQRVLKNTRAVFKSAAASKSQPFVLAGSGTLGWDIFASNFILSKAPNKNVLVVSTGTFSDRFADCLRSYGAQVDVVRPLKIGESVPLELITEKLSQNSYGAVTVTHVDTSTAVLSDLKAISQAIKQTSPETFFVVDAVCSIGCEEFEFDEWGVDFALTASQKAIGAPAGLSISLCSSRFMDYALNDSKNGHVHGYFSSLRRWTPIMENYEAGKGAYFATPPVQLINSLDVALKEILEEGLHKRWDLHREMSDWFKDSLVNGLQLTSVSRYPSNMSAHGLTAVYVADPPDVIAFLKSHGVVIAGGIHKDIGPKYIRIGHMGVTACNKNLPYMKNCFDLIKLALQRKK”, the “soluble on expression in E. coli” value is on record as “soluble”.

As for “MTKSYDVWWQKGQESDDDMARDHQEAWERTIEMLDTSDIKGKTILDVGCNQGGFLRKLYDTTPFKEGVGIDLARLSLEKAETLKGERPLTYYLTDKPQETNRTFDTAVSTSVLYLIEDIPQHAQDLKEVLKPGGVYYASFADLTNNPSRQFMDDTINQYGATPSQNHSLKHIVDSFVDAGFEVAVMKEPVPDVIDLTHYSDFYLSPNDYLQTLYEESFLIKASVKEGIGKLEHHHHHH”, the “soluble on expression in E. coli” value was “soluble”.

Take “MTLAEAADAINFGLAGRVVLVTGGVRGVGAGISSVFAEQGATVITCARRAVDGQPYEFHRCDIRDEDSVKRLVGEIGERHGRLDMLVNNAGGSPYALAAEATHNFHRKIVELNVLAPLLVSQHANVLMQAQPNGGSIVNICSVSGRRPTPGTAAYGAAKAGLENLTTTLAVEWAPKVRVNAVVVGMVETERSELFYGDAESIARVAATVPLGRLARPADIGWAAAFLASDAASYISGATLEVHGGGEPPPYLGASSANK”: the “soluble on expression in E. coli” value is on record as “soluble”.

Consider “MTLDHQIINPTLKWSQPAVPSGGPLVQHAHTTLDSDAGLTENPLTKLLAIGKEDDNAQWHLSGSILDVYSGEQGISPINMGLTSASCPSSLPMKREITETDTRALAKERQKKDNHNLIERRRRYNINYRIKELGTLIPKSNDPDMRWNKGTILKASVEYIKWLQKEQQRARELEHRQKKLEQANRRLLLRIQVFIRM”, for which the “soluble on expression in E. coli” value is listed as “not soluble”.

As for “MTLDLPELPFPLRPYGPDGRWSYADGVLTGVAGSRQDRFVPPTGESLESVSDAPRLLGAPDGDFQLIARVSVGFRGAFDAGVLYVHVGERAWAKLCLEYSPDVPTVCTVVTRGHSDDCNSFTVEGDSVWFRVSRTGRAFAFHASLDGERWTFVRLFTLGDEEETGSALVGFLAQAPTGEGCTVTYDHLEFRPAWPADLRDGSLEHHHHHH”, the “soluble on expression in E. coli” value is listed as “not soluble”.

“MTLKELYAETRSHMQKSLEVLEHNLAGLRTGRANPALLLHLKVEYYGAHVPLNQIATVTAPDPRTLVVQSWDQNALKAIEKAIRDSDLGLNPSNKGDALYINIPPLTEERRKDLVRAVRQYAEEGRVAIRNIRREALDKLKKLAKELHLSEDETKRAEAEIQKITDEFIAKADQLAEKKEQEILG”: the “soluble on expression in E. coli” value is given as “soluble”.

With “MTLLNLMIMQDYGISVCLTLTPYLQHELFSAMKSYFSKYILPVSLFTLPLSLSPSVSAFTLPEAWRAAQQHSADFQASHYQRDAVRARQQQAKAAFLPHVSANASYQRQPPSISSTRETQGWSVQVGQTLFDAAKFAQYRQSRFDTQAAEQRFDAAREELLLKVAESYFNVLLSRDTVAAHAAEKEAYAQQVRQAQALFNKGAATALDIHEAKAGYDNALAQEIAVLAEKQTYENQLNDYTDLDSKQIEAIDTANLLARYLPKLERYSLDEWQRIALSNNHEYRMQQLALQSSGQALRAAQNSRYPTVSAHVGYQNNLYTSSAQNNDYHYRGKGMSVGVQLNLPLYTGGELSGKIHEAEAQYGAAEAQLTATERHIKLAVRQAYTESGAARYQIMAQERVLESSRLKLKSTETGQQYGIRNRLEVIRARQEVAQAEQKLAQARYKFMLAYLRLVKESGLGLETVFAE”, the “soluble on expression in E. coli” value is recorded as “not soluble”.

As to “MTLPKIGKPATRALNSQGIYTLEAVSQYTKSSLMEMHGVGPKAISILEQALFQHQLHFKTEVQSSLPFKLTGDVSCNHAPKRQQMIDFIVATAALDIELLRSLVTTEFIWSVPGHFDIYGPQILIQELSNYYNQVASLNIHSNITHGCLGSMHGIEILKTGKEIHFAHFFEFENHKKDAKLSKVTSYIVVA”, the “soluble on expression in E. coli” value is “not soluble”.
